Test results reported in paper doi:10.1101/2023.08.01.551478, “A feedback control mechanism governs the synthesis of lipid-linked precursors of the bacterial cell wall” (bioRxiv, 2023).

Target: the molecule itself
Assay: cryo-EM structure; YES complex of EcMraY(T23P), protein E and SlyD, obtained with the methodologies of ref. 31; focused refinement of MraY alone; processed with cryosparc v3.2.0

B1: E. coli MraY(T23P) (enzyme)
chain: MLVWLAEHLVKYYSGFNVFSYLPFRAIVSLLTALFISLWMGPRMIAHLQKLSFGQVVRNDGPESHFSKRGTPTMGGIMILTAIVISVLLWAYPSNPYVWCVLVVLVGYGVIGFVDDYRKVVRKDTKGLIARWKYFWMSVIALGVAFALYLAGKDTPATQLVVPFFKDVMPQLGLFYILLAYFVIVGTGNAVNLTDGLDGLAIMPTVFVAGGFALVAWATGNMNFASYLHIPYLRHAGELVIVCTAIVGAGLGFLWFNTYPAQVFMGDVGSLALGGALGIIAVLLRQEFLLVIMGGVFVVETLSVILQVGSFKLRGQRIFRMAPIHHHYELKGWPEPRVIVRFWIISLMLVLIGLATLKVR
notes: MraY (phospho-MurNAc-pentapeptide transferase) of Escherichia coli with the T23P substitution, as it stood in the YES complex for cryo-EM; also called EcMraY(T23P)
stoichiometry N: 2
